Data published in article PMC9331050.

Columns and labels:
[1] = target: CreFH1, frataxin homolog from Chlamydomonas reinhardtii, mature form without the mitochondrial transit peptide (Chlamydomonas reinhardtii); test: native MS; ESI-TOF MS of recombinant CreFH1 after 3 h with Cu2+, Fe3+, Zn2+ or water; carrier 5:95 acetonitrile:ammonium acetate/ammonia 15 mM, pH 7.0; monomer to dimer
[2] = target: CreFH1, frataxin homolog from Chlamydomonas reinhardtii, mature form without the mitochondrial transit peptide (Chlamydomonas reinhardtii); test: native gel or EMSA; 8% native PAGE of purified CreFH1 incubated 1 or 3 h with water (control) or 33 uM Fe3+, Cu2+ or Zn2+; 3 ug protein a lane; Coomassie stain, densitometry; monomer to dimer

Substance: CreFH1, frataxin homolog from Chlamydomonas reinhardtii, mature form without the mitochondrial transit peptide (natural protein)
- stoichiometry N [1]: 2
- percent of protein as dimer, with Zn2+ or Fe3+ [2]: 22%
- percent of total protein as dimer, with Cu2+ [2]: 40%
- stoichiometry N [2]: 2
